We go through 69 sequences from the domain aggregation screens of Martell et al. (2025).

This data set in a line: soluble fraction after stress (log2 fold change); higher = more stays soluble; pooled small domains, quantitative proteomics. The note with it: stress: 50 degC. Put shortly: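 After stress at 50°C, the amount of each protein still soluble was measured. This was done on pooled custom libraries of small protein domains, using high-throughput quantitative proteomics. The figure given is a base-two log fold change and stands for aggregation propensity, with higher values meaning more protein stays in solution.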
Consider “HMQARSQQTIQTLFKAAAQILDKEGEAGLSTNKVAAAAGFSIGTLYQYFPSKEVLIQAMAAR”, for which the “soluble fraction (log2)” value is -0.0788.
For “HMTHANAALTPRHRLKVARLVVDEGWPVSEVAARFQVSWPTVKRWADRYRAGQSMQDRSSRP” the value was -1.13.
For “HMSNETKSAILNFAEKHHDFNIDDLFESLSKSMDINRSSLLWHLFKLVNSNVLIRTGRGMYAKV” the value was -1.89; for “HMGAVFEFIMEEEEPERIDKLLSSALPDLSRSYLQKLVKEGAVLVNKKEVKPNHKVNPGDVVEISVPEPE”, 0.18.
For the sequence “HMLEYIEPRTAVQIHGIKAKPELNGKRGMVMGYAPERMRYRVRIDVGEGTGGKESEEVYLKPENVIAVK”, the “soluble fraction (log2)” value was 0.0778.
As for “HMSSVEVWINGKSSGLTSDNRAQILQQLPAESIERIEVIDNPSAKFSAEGSAGIINIVLKKD”, the figure is 0.157; as for “HMTANTQVENIRLELQRYMDEHGISQVTVARGIGKTHPVISQFLNNKYPGDVEEVARAIESWLTKQHEKAA”, -0.0876; as for “HMEFEIGQEDSKKSVKQFLYNTLRLSHGQVTALKRQERGILLNGERVFVTALLQEGDRLSLLLE”, -0.342.
For “HMNSNTIIINDIMTKIGKEVKNFTEIYSIILKALAEHGEEYVRTNTEYALKNFTGNFDIFLEQLLLK” the value was -0.201.
As for “HMLRNDEAVMLGRRLLNKHLQAFSVQIKDISHQRIHDLLDELELESLDHLLDDIGLGNRSVFLVAQKLLQ”, the “soluble fraction (log2)” value is -1.39.
As for “HMAMDYYAIGQRIRKFRKAHDWSQEELAEKVEISTTHMSHIETGSTKLSLPVLVSLANVLDVRTDDLLF”, the figure is -3.88; as for “HMPQFDRQAFGQRLRLLRDYREMTQQQVANFLNVDRSTYSYYENGKTEPSITVLMRMAELFSVTLDSLLNM”, -2.83; as for “HMFELVKISENIPIRDLAETLKTTPNEIIKELMVFGVLANINQTLNFDLASKVADKLGFEVELL”, -0.246.
In the case of “HMDGTAKVAHMLVNELETFNRLKKHEIAYMLHIQPETLSRILNKLTRNGTIEIEKNSVVILNIQELKEIY”, the “soluble fraction (log2)” value was -1.55.
For “HMAGPVLTPEEAEVLRILADHGEMTVDNISAEGKMSAAVVLRGLGVLSAYGLVAPGGPGRWRSE”, the “soluble fraction (log2)” value was -0.253.
As for “HMDTLRARQEAAYRFLSAIAGDWRNYEEANRALFAGDAARFQDLTESWPADVRDHARHLASAAFSS”, the figure is -0.543.
“HMSEQGVITAKFASIVGNQNIQLVMFPDSVYLKGQVSSEEEKKRAETVASSLIQDRKIVNLIEFE”: the “soluble fraction (log2)” value was -0.0169.
As for “HMDVSASEVGLTGRQTDVLSLMVKGRSNRDIAELLGLSEGTVKIHITAIFKALGVASRTQALVAAARLGLK”, the figure is -0.156.
As for “HMIVDARNREINLGSHVRYVDTGTVGEVTDSKVENDASWVKIDKTNLWYLANKLELLNDEDFKT”, the figure is 0.0653.
As for “HMQILNVFSKHGIKPISPQIGDKFDPQLHEAMFEAPVPGTKAGDIIEVSSEGFMLYDRLLRPAHVGVSSN”, the figure is 0.0206; as for “HMNDIVKIYTTHRIINIEGLAKNEPIMLYTINGTLIDKSVSSNGSAQLHVKGIGVYLVKWANNIVKVIVPN”, -2.42; as for “HMHESLAEVAARKLRALIVTGELAPGERVTEAGLTDLLEISRTPAREAIRILSSEGLLVVFPNRGAEVV”, -0.822.
Take “HMELEAFPNPTDMFLSFTTKEKTPLAIYDINGKQVLYVEQITSSSKINVSKLSEGVYFAKTNQGTVKWVK”: the “soluble fraction (log2)” value is -1.67.
“HMLFKGDTREENVILEFLSKNGTTSSDAIIKQTGLSASEFNQAITMLELKGLALNNGGEKWSL”: the “soluble fraction (log2)” value is -0.0779.
Regarding “HMKNTIPVPHIIGLSEQEARETLERAGLQLNVIKTEPNTKYESGQVTDTNPNEGIKVPKGTIVNVVLADS”, the “soluble fraction (log2)” value was -0.00961.
As for “HMSTRYVRTPAGQAEIQARVFKLSRPVRNLLLVINDSRSIDDWLVQVHGITADDVAMLRAEGLIAEVS”, the figure is -2.4.
As for “HMEISPGDVFKQLPGIGDDLSRRVVESLGIQSLEELESAAHDGRLEQVEGFGERRVQMVRAVLTGMLS”, the figure is -0.0423; as for “HMDMNVQNYRGLSLDRAKKLISDLGLKYEVVGTGDSVVKQVPSSGSRMSKENGRIILYTENVEDA”, 0.00608; as for “HMPPPTLVESAYNHLKADIISSYLKPDEKINLKDLSQRYQVSETPIKQALNRLISEGLIISVPRKGMWVH”, -0.0852.
For “HMASKTGTITATSLNVRSGAATTYSILGTLSNGKTVTIYEESNGWYKINYNGGYGWVSKTYVSTG” the value was -0.435.
For the sequence “HMKKVIEFKDVSFAFEKKPILQDFNLLVQNKDRIGIVGDNGVGKSTLLNLIAERLQPQSGQVII”, the “soluble fraction (log2)” value came to 0.00568.
As for “HMDQINNDLRKLIEFLPEDQKTVLKMRHFQEMSFKEIAKATGVSINTALGRMRYALINLRKLIEENEI”, the figure is -1.41; as for “HMQLKKDTILSYIEEKLIDSYNSNKGFTTQEISVALNMQRTNVSAILNNLVKENKLVKTKGKPVRYFLSG”, -0.708.
For “HMAVQEDAGLAREDLPPEVQGLLQEREAARAAKDWGKSDALRRQLQDLGYAIKDTAQGMEIKRT” the value was 0.425; for “HMVNYKEILRLAHEGYSQRQIATNIGNSRNTVSEVLDAAKAANIAWPPEETVTNEQLGAILFPNRH”, 0.204; for “HMSADKAEAAEASLKSFNLRLQAAAMEAGKTFAPVTADQYAEYKAAWGTYIRKGIEGLSESEKKTINVG”, -0.03.
As for “HMSLSNMIGKNIQWTHVTKTKDAEGNPKTNSETFAGNVRGVKVLNGKPMVVAQDAKGKLHEVEVSEIEAIA”, the “soluble fraction (log2)” value was 0.234.
As for “HMFDDEELDTFAGRQSDSYDQQEVEQFSDVLHTMRQDEVQAWWRSLTLRGISLPDELKDEVIML”, the figure is -0.538; as for “HMVQISNTDDLYPIVQRIVDANPQSVEDYKNGKAKALGFLVGQMMKETKGKANPSMVNDLIIKAIEE”, 0.123; as for “HMPLDKDTTLDEIYRRFNMEHPADYKGHSLSMGDIVVFRQDGKQTAYYVDEGADYRQVPEFFVK”, 0.0346.
For “HMGYDLLFQQALGFHEQGRLNEAENIYRQILETAPNNPDILNLLGLIAQQKGLHAQAVDYFYQAIRL” the value was -1.41.
As for “HMYAHTPEMEAMNELGLEPPVTLDEIKKTYKTLVKKYHPDHNKEDPEAEEKLKKVNMAYTILKVAYTEFEK”, the figure is -0.147; as for “HMKNQQLFNIGDRFQVDGVAYRMEKLFPENGTVEVYNLGVGRHKTMSFEEILALWNSGKLLFEI”, -0.185; as for “HMEVKRANRKERFLEALPYQFSRQDYLNIADKNKIPHKTAEGYITKFVDAGLIHREAHNNYTNPTKA”, 0.146.
As to “HMKKGATVSGVIVEKTKKSLIIDLGAKTEGVVADKEFEFAIDFVKELKKGDEVKAIVISTDNDKGQVVLSL”, the “soluble fraction (log2)” value is -0.155.
For “HMDSIQMKNNSILYYGNTAGYLDAKRNTAVVDPMFRTDEMESYLSEQKGLSVEWASGTYDRLT” the value was 0.149; for “HMSFGWESLENKEGVADTDLHPSGWVRIEDSRIFVVSEGDFINKGSKVTVLTVDGNRVVVRELI”, -0.522.
For “HMGGEEINMINLVGLSQSEAENQLAKLKLKIGQVTAEYSDKPSGTVLKQSISANNKVKKGADIDIVVSKG” the value was 0.126; for “HMRVDRSALDSIPGVGPGRKRTLLHHFGSARAVEASGLADLESIRGISKALARKIYDFFHPE”, -1.38.
For “HMIMVAGHLQIKKGKYYMVLELKSESGERKTKWISTGLSAKGNKRKAEAMLEEARENYQSTDA” the value was -0.899; for “HMVERLVVSPGAGVFAPNKAIANGTRISVGDVLGMVGEQEVRSLFDGVLQSFISVDGERLTAHQPVAWLRT”, -0.536.
For the sequence “HMVQVPSLVGISEIEAKTLLTQAGFFVKIVEVFDANQPVGIVLAQAPSAGESRIIGSPVTITVNKAQ”, the “soluble fraction (log2)” value is -0.867.
For “HMVDDRPVTGTTLIREWQGRAYEVIVQAGHFEFQGQRYQSLSAIAKVITGTVWNGWAFFGLR” the value was -0.524.
In the case of “HMVSFSIDEALVSAVKGPRSANVMSIQRQFLVRLSVERDGRVTITGANSKSVQQAREAVEAAVEEAKLHP”, the “soluble fraction (log2)” value was -0.827.
In the case of “HMDTERLYAYAWQTHLKQFGLNISEEEIRQFVGVDDRIVHSFYAKTVPLDDFENTMFSLGEIIQQSL”, the “soluble fraction (log2)” value was -2.99.
As for “HMAEAPGSVELLAERLRPWWEIHGGEWGSKTKALRFLFGDQAPVAGSYWRALEAAIAQIESTT”, the figure is -0.16; as for “HMVVLPPTEDAPEWAQVFDRLGRPESADGYKLPVPEGADPAFAKLASAKMHELGLSAKQGAALAAWWNEQA”, 0.108.
As for “HMTKEEFLYELKKELSALDSAEATAYNLRYYSDYIDAEIAKGRSEQEVLDELGNPRWLVNSIKESG”, the figure is 0.122; as for “HMTAPQAQDYARVPDVLGLDMRESAQALRLDGFEMNAQGDGLAARQSPIGGSYAPEGTQVLVTFEM”, 0.102.
In the case of “HMDSNFNYELVGFRLDDMGLNSSVIVKRNNQEFVIQKGDLLENKYLLNSVTKKNINFSYLGKNYQI”, the “soluble fraction (log2)” value was -0.789.
Consider “HMETDGGDLTPRERDVLSLIGRGLRNAEAASALGLSEHTIAGHIKSVYSKLGISTRAEAALLASRLGL”, for which the “soluble fraction (log2)” value was -0.0786.
For “HMTVTLTTLRNGSTGAQVKTLQRLLSAMDYYNGETDGKFGISTAAAVKAFQRAKRLTVDGIVGKNTWTALL” the value was -1.18; for “HMKLPIEKESYRIIWDLEEESFRIRLKISENSPQEEKNILINQAIEDIENITGEPIDKSPYYVLYE”, 0.0672; for “HMNYKDQISRYFQQAFHIYPKYQTMKNEEGNFTSKIFKDDKMIIEGVGKSKKKAEQDVSRKALIHFNVL”, -0.262.
For “HMEDQITNQQFTMTKQSILDLLVKKSYPPYELANELHLKKEEVLPIIRFLIAENEIHFKDGMLHLPH” the value was -0.167; for “HMGIPIEAYHESLHRHYIDLWELLDTGKETLIDAEGNEVDKIHLLNAIRFNVNGMLHELLKE”, -1.76; for “HMGTHVVQEGEYLDLIIEKTIPGSPIRKDLLRKAFVKLNPSAFGGRGNPNYIFARKKLKVPSVEDLKAVIF”, -0.0708.
As for “HMRDTLSKQLLTEEMVLQFIREMREHDPGIGGEKLHAMYLGRFGRDYEYMVGRDKMEMIIAENNLNVR”, the figure is -0.736; as for “HMLSSREEKILNYLNEHQIITRKKAQELLETSQSTAGRVLKIMVDNGLIVQYGGSRSIWYELIK”, -0.939.
